Assay results: patent US20220340642A1 (Kyowa Kirin, published 2022)

Legend:
[1] = target: T1, soluble recombinant of cynomolgus monkey FasL (His6, Pro133-Leu280) (UniProt P63308 133-280); assay: BIAcore SPR
T1 chain: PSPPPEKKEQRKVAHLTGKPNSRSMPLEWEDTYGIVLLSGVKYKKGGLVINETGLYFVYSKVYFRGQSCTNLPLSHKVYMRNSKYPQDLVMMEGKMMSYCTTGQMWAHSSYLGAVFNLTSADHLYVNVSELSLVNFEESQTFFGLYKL
Method in brief: (§1)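 Dissociation constants (Kd, nM) come from surface plasmon resonance measurements on a BIAcore T-100 or T-200 instrument (GE Healthcare) in HBS-EP+ Buffer. Each test molecule was analysed for binding to soluble recombinant His-tagged human or cynomolgus monkey LIGHT, TL1A or FasL.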

[2] = target: T2, soluble recombinant of cynomolgus monkey TL1A (His6, GS linker, Leu72-Leu251); assay: BIAcore SPR
T2 chain: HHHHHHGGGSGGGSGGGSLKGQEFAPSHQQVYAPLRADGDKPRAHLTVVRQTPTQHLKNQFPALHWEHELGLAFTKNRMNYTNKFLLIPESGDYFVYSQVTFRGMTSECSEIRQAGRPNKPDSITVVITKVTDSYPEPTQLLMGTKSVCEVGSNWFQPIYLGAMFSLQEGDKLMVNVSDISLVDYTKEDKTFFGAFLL
Method in brief: as §1

[3] = target: T3, soluble recombinant of cynomolgus monkey LIGHT (His10, GS linker, Asp74-Val240); assay: BIAcore SPR
T3 chain: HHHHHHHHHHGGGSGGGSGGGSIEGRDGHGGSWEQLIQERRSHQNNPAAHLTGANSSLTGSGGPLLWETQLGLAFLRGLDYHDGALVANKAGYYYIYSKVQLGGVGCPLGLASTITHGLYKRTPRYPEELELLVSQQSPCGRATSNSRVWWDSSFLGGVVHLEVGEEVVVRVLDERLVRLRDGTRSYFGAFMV
Method in brief: as §1

[4] = target: T4, membrane-bound human LIGHT (human, UniProt O43557 1-240); assay: flow cytometry on expressing cells
T4 construct: whole, on cells; also called LIGHT/HEK293
T4 sequence (O43557 whole entry): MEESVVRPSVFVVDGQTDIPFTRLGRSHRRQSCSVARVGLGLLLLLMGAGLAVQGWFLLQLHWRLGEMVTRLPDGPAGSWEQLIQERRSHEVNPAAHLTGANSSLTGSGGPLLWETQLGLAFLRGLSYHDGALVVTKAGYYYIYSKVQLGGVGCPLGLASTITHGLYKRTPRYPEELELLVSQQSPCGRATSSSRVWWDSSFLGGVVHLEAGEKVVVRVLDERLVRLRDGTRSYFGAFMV
Method in brief: (§2)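 Binding was measured by flow cytometry on HEK293 cells forced to express membrane-bound LIGHT and on cell lines expressing N-terminally Met/FLAG-tagged TL1A or FasL from a CMV-promoter pClpuro vector. Cells at 1×10⁵ cells/well received 1 or 10 μg/mL protein on ice for 1 hour. After washing, cells were stained on ice for 1 hour with LIVE/DEAD Fixable Aqua and R-phycoerythrin goat F(ab′)₂ anti-human IgG (10 ng/mL, 0.1 or 1 μg/mL). Fluorescence was read on a FACS Fortessa.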

[5] = target: T5, membrane-bound human TL1A (Met and FLAG tag at the N-terminus) on CHO-K1 cells (human, UniProt O95150 2-251); assay: flow cytometry on expressing cells
T5 construct: also called TL1A/CHO
T5 sequence: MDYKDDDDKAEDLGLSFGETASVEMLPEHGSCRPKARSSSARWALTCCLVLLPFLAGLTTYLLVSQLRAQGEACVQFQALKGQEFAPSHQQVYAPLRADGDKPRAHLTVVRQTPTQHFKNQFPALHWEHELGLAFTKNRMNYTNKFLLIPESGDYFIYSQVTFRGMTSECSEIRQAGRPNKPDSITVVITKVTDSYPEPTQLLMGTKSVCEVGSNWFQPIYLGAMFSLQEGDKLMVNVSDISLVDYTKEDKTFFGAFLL
Method in brief: as §2

[6] = target: T6, soluble recombinant of human TL1A (His6, GS linker, Leu72-Leu251) (human, UniProt O95150 72-251); assay: SPR, binder captured on Protein A chip
T6 construct: also called His6-TL1A; hTL1A
T6 sequence: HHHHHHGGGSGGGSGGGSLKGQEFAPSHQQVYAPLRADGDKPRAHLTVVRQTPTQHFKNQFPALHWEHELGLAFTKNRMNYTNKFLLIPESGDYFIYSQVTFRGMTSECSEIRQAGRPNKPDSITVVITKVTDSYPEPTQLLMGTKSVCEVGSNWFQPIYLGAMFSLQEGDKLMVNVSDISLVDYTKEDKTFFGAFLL
Procedure: (§3) The binding activity to human and cynomolgus monkey DcR3 ligand trimers were analyzed by the SPR method. BIAcore T-100 (GE Healthcare) was used for measurement of the binding activities to human LIGHT, cynomolgus monkey LIGHT, human TL1A and cynomolgus monkey TL1A, and BIAcore T-200 (GE Healthcare) was used for measurement of the binding activities to human FasL and cynomolgus monkey FasL. As the buffer, HBS-EP+Buffer was used.
(§4) Various DcR3 variants were injected into Series S Sensor Chip Protein A (GE Healthcare) at 10 μL/min for 30 seconds and captured. Meanwhile, the buffer containing no protein was injected into a reference flow cell. Thereafter, as an analyte, each human DcR3 ligand trimer or each cynomolgus monkey DcR3 ligand trimer diluted to 0.08 to 20 nmol/L was injected. A human LIGHT trimer, a human TL1A trimer or each cynomolgus monkey DcR3 ligand trimer was injected at the flow rate of 30 μL/min for 2 minutes to monitor the binding, and subsequently the buffer was injected for 5 minutes to monitor dissociation. A human FasL trimer was injected at 30 μL/min for 1 minute to monitor the binding, and subsequently the buffer was injected for 3 minutes to monitor dissociation. Then, 3 mol/L magnesium chloride was injected at 30 μL/min for 1 minute to perform a regeneration reaction.

[7] = target: T7, soluble recombinant of cynomolgus monkey TL1A (His6, GS linker, Leu72-Leu251) (cynomolgus monkey); assay: SPR, binder captured on Protein A chip
T7 construct: also called His6-cynoTL1A
T7 chain: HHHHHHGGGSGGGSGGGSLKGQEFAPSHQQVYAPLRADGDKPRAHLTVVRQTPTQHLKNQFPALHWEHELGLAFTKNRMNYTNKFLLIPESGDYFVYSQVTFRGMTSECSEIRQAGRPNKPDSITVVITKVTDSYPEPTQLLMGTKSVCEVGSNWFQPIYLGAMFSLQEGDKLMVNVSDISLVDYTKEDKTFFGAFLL
Procedure: as §3, §4

[8] = target: T8, FLAG-LIGHT (FLAG tag, human LIGHT Asp74-Val240) (human, UniProt O43557 74-240); assay: SPR, binder captured on Protein A chip
T8 construct: SEC trimer fraction; also called soluble recombinant FLAG-LIGHT trimer; soluble human LIGHT trimer
Procedure: as §3, §4

[9] = target: T9, soluble recombinant of cynomolgus monkey FasL (His6, Pro133-Leu280) (cynomolgus monkey, UniProt P63308 133-280); assay: SPR, binder captured on Protein A chip
T9 construct: also called His6-cynoFasL
T9 sequence: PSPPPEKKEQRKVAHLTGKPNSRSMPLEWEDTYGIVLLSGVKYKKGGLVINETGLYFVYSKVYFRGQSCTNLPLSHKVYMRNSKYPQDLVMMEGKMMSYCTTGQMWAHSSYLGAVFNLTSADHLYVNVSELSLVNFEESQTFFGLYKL
Procedure: as §3, §4

[10] = target: T10, FLAG-cynoLIGHT (FLAG tag, cynomolgus monkey LIGHT Asp74-Val240) (cynomolgus monkey); assay: SPR, binder captured on Protein A chip
T10 construct: SEC trimer fraction; also called soluble cynomolgus monkey LIGHT trimer
T10 chain: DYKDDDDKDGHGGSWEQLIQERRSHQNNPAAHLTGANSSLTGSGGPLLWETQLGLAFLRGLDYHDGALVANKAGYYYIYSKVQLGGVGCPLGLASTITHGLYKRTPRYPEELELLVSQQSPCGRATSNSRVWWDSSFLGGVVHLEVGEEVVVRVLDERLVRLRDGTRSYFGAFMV
Procedure: as §3, §4

Kd [1]: 1.1 nM
Kd [2]: 0.32 nM
Kd [3]: 0.29 nM
binding result [4]: binds
binding result [5]: binds
binding result [6]: binds
binding result [7]: binds
binding result [8]: binds
binding result [9]: binds
binding result [10]: binds
B1: chimera A-E57R-Fc (Eg1S LALAGANA) (Fc fusion)
chain: ETFPPKYLHYDEETSHQLLCDKCPPGTYLKQHCTAKWKTVCAPCPPRHYTQFWNYLRRCRYCNVLCGEREEEARACHATHNRACRCRTGFFAHAGFCLEHASCPPGAGVIAPGTPSQNTQCQPCPDGFFSNETSSKAPCRKHTNCSVFGLLLTQKGNATHDNICSGNSESTQKEPKSSDKTHTCPPCPAPEAAGAPSVFLFPPKPKDTLMISRTPEVTCVVVDVSHEDPEVKFNWYVDGVEVHNAKTKPREEQYNSTYRVVSVLTVLHQDWLNGKEYKCKVSNKALPAPIEKTISKAKGQPREPQVYTLPPSRDELTKNQVSLTCLVKGFYPSDIAVEWESNGQPENNYKTTPPVLDSDGSFFLYSKLTVDKSRWQQGNVFSCSVMHEALHAHYTQKSLSLSPGK
